Data: patent publication US20220363752A1 (VERSEAU THERAPEUTICS, published 2022)
Changes are numbered by the printed parent chain. Primed or numbered codes have the meaning given here. Biotin′ = not defined here

T1: LRRC25(36-55) biotin peptide (human, not fully specified; N-terminal NH2; C-terminal GGK-Biotin; native Cys changed to Ser)
T1 peptide: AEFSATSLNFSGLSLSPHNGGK

T2: LRRC25(96-115) biotin peptide (human, not fully specified; N-terminal acetyl; C-terminal GGK-Biotin; native Cys changed to Ser)
T2 construct: also called Biotin LRRC25 (96-115) peptide
T2 peptide: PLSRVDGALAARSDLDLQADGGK

T3: LRRC25(126-145) biotin peptide (human, not fully specified; N-terminal acetyl; C-terminal GGK-Biotin; native Cys changed to Ser)
T3 peptide: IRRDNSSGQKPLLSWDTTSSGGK

T4: LRRC25(81-100) biotin peptide (human, not fully specified; N-terminal acetyl; C-terminal GGK-Biotin)
T4 peptide: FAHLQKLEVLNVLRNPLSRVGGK

T5: LRRC25(111-130) biotin peptide (human, not fully specified; N-terminal acetyl; C-terminal GGK-Biotin; native Cys changed to Ser)
T5 peptide: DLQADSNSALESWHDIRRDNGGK

T6: LRRC25(51-69) biotin peptide (human, not fully specified; N-terminal acetyl; C-terminal GGK-Biotin)
T6 peptide: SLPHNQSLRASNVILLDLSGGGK

T7: LRRC25(66-85) biotin peptide (human, not fully specified; N-terminal acetyl; C-terminal GGK-Biotin)
T7 peptide: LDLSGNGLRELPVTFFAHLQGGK

T8: LRRC25(21-40) biotin peptide (human, not fully specified; N-terminal NH2; C-terminal GGK-Biotin; native Cys changed to Ser)
T8 peptide: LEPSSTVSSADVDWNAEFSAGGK

T9: LRRC25(150-165) biotin peptide (human)
T9 peptide: Ac-SAFLEVSSAPGLASATGG-{Biotin′}

T10: LRRC25(141-159) biotin peptide (human, not fully specified; N-terminal acetyl; C-terminal GGK-Biotin; native Cys changed to Ser)
T10 peptide: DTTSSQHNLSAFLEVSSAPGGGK

B1: anti-LRRC25 chimeric antibody 1G08 (antibody, human IgG4, V domains shown)
VH: DVQLVESGGGLVKPGGSLKLSCAASGFTFSNYAMSWVRQTPEKRLEWVASISRGGNTYYPDSVKGRFTISRDNARNILYLQMSSLRSEDTAIYYCTRGNYGSSPFAYWGQGTLVTVSA
VL: DIVLTQSPASLAVSLGQRATISCRASESVDSYGNSFMHWYQQKPGQPPKLLIYLASNLESGVPARFSGSGSRTDFTLTIDPVEADDAATYYCQQNNEDPWTFGGGTKLEIKR
B2: anti-LRRC25 chimeric antibody 3E01 (antibody, human IgG4, V domains shown)
VH: EEKLEESGGGLVKPGGSLKLSCAVSGFTLSSYAMSWVRQTPEKRLEWVASISRGGNTYYPDSVKGRFTISRDNGRNILNLQMSSLRSEDTAIYYCTRGGGSTMITSLFAYWGQGTLVTVSA
VL: DIVMTQAAFSNPVTLGTSASIFCRSSKSLLHSNGITYLYWYLQKPGQSPQLLIYQMSNLASGVPDRFSSSGSGTDFTLRISRVEAEDVGVYYCAQNLELPYTFGGGTKLEIKR
B3: anti-LRRC25 chimeric antibody 3F04 (antibody, human IgG4)
heavy: DVQLVESGGGLVKPGGSLKLSCAVSGFTLSSYAMSWVRQTPEKRLEWVASISRGGSTYYPDSVKGRFTISRDNGRNILNLQMSSLRSEDTAIYYCARGGGSTMITSLFAYWGQGTLVTVSAASTKGPSVFPLAPCSRSTSESTAALGCLVKDYFPEPVTVSWNSGALTSGVHTFPAVLQSSGLYSLSSVVTVPSSSLGTKTYTCNVDHKPSNTKVDKRVESKYGPPCPPCPAPEFLGGPSVFLFPPKPKDTLMISRTPEVTCVVVDVSQEDPEVQFNWYVDGVEVHNAKTKPREEQFNSTYRWSVLTVLHQDWLNGKEYKCKVSNKGLPSSIEKTISKAKGQPREPQVYTLPPSQEEMTKNQVSLTCLVKGFYPSDIAVEWESNGQPENNYKTTPPVLDSDGSFFLYSRLTVDKSRWQEGNVFSCSVMHEALHNHYTQKSLSLSLGK
light: DIVMTQDAFSNPVTLGTSASISCRSSKSLLHSNGITYLYWYLQKPGQSPQLLIYQMSNLASGVPDRFSSSGSGTDFTLRISRVEAEDVGVYYCAQNLELPFTFGSGTKLEIKRTVAAPSVFIFPPSDEQLKSGTASVVCLLNNFYPREAKVQWKVDNALQSGNSQESVTEQDSKDSTYSLSSTLTLSKADYEKHKVYACEVTHQGLSSPVTKSFNRGEC
B4: anti-LRRC25 chimeric antibody 3C01 (antibody, human IgG4, V domains shown)
VH: B2 VH
VL: DIVMTQDAPSVPVTPGESVSISCRSSKSLLHSNGNTYLYWFLQRPGQSPQLLIYRMSNLASGVPDRFSGSGSGTAFTLRISRVEAEDVGVYYCMQHLEYPFTFGSGTKLEIKR
notes: also called ATCC PTA-126026
B5: anti-LRRC25 chimeric antibody 4A03 (antibody, human IgG4, V domains shown)
VH: B1 VH with Q3N, V5E, E6V, N31R, N56S, N73I, N76D, I92M, T96A, P104L
VL: B2 VL with F22S, Y101F, G105S

What was measured:
[1] = target: T11, His-tagged cynomolgus monkey LRRC25 extracellular domain protein, cyno LRRC25-His (cynomolgus monkey); experiment: ELISA, plate-immobilized cyno LRRC25-His
T11 construct: The entry holds the extracellular domain, a GSG linker and the His tag
Description: (§1) A typical ELISA was performed by coating overnight in PBS, pH 7.4, at 4° C. in high binding microtiter wells with 1 ug/mL/100 ul per well of human LRRC25-His or cyno LRRC25-His. An anti-human LRRC25 antibody (2A3, LS Bio, LS-C174039-100) and anti-HIS-HRP (Miltenyi Biotec; 130-092-783) served as coating controls for the human and cyno LRRC25 proteins, respectively. […] Anti-LRRC25 antibodies were added (100 ul per well) at 500 nM and serially diluted 3-fold in assay buffer (1% skimmed milk in PBS, pH 7.4). The plate was incubated with gentle agitation for 1 h at room temperature. The plate was washed 3× and HRP-conjugated secondary antibody in assay buffer added [100 ul per well; goat anti-human IgG (Jackson Immunoresearch, cat #715-035-150)], and the plate was incubated as before. Antibody bound to plate-immobilized LRRC25(ECD)-HIS was determined at A450 nm using HRP substrate (3,3′,5,5′-tetramethylbenzidine (TMB); eBioscience; 00-4201-56); 100 μl/well).

[2] = target: T1, LRRC25(36-55) biotin peptide; experiment: peptide ELISA
Description: (§2) To establish if functional chimera anti-LRRC25 antibodies recognize particular regions of LRRC25, ELISA experiments were performed using 10 plate-immobilized 16- to 20-mer overlapping LRRC25(ECD) biotin peptides (Table 7). Biotinylated human LRRC25-His served as a positive control. A typical ELISA was performed by coating overnight at 4° C., 3 ug/mL/25 ul per well of streptavidin (Jackson Immunoresearch, Cat. #016-030-084) in PBS in half-area high binding microtiter wells (Corning Cat. #3690). […] Biotin peptides or biotinylated human LRRC25-His protein were added in duplicate (2 ug/mL/25 ul per well) in assay buffer (blocking buffer containing 0.05% tween 20) and the plate incubated for 45 min at 37° C. The plate was washed as before, 20 nM anti-LRRC25 antibodies in assay buffer added in duplicate into appropriate wells, and the plate incubated as before. The plate was washed and HRP-conjugated secondary antibody in assay buffer added [25 ul per well; goat anti-human IgG (Jackson Immunoresearch, Cat. #715-035-150)], and incubated as before. Antibody bound to plate-immobilized peptide(s) or protein was determined at A450 nm using HRP substrate (3,3′,5,5′-tetramethylbenzidine (TMB); eBioscience; Cat. #00-4201-56); 100 μl/well).

[3] = target: T2, LRRC25(96-115) biotin peptide; experiment: peptide ELISA
Description: as §2

[4] = target: T3, LRRC25(126-145) biotin peptide; experiment: peptide ELISA
Description: as §2

[5] = target: T4, LRRC25(81-100) biotin peptide; experiment: peptide ELISA
Description: as §2

[6] = target: T5, LRRC25(111-130) biotin peptide; experiment: peptide ELISA
Description: as §2

[7] = target: T6, LRRC25(51-69) biotin peptide; experiment: peptide ELISA
Description: as §2

[8] = target: T7, LRRC25(66-85) biotin peptide; experiment: peptide ELISA
Description: as §2

[9] = target: T8, LRRC25(21-40) biotin peptide; experiment: peptide ELISA
Description: as §2

[10] = target: T9, LRRC25(150-165) biotin peptide; experiment: peptide ELISA
Description: as §2

[11] = target: T10, LRRC25(141-159) biotin peptide; experiment: peptide ELISA
Description: as §2

[12] = target: T12, His-tagged human LRRC25 extracellular domain protein, human LRRC25-His (human, UniProt Q8N386 21-165); experiment: ELISA, plate-immobilized antigen
T12 construct: The entry holds the extracellular domain, a GSG linker and the His tag; also called LRRC25(ECD)-HIS
Description: To establish the relative binding strengths of anti-LRRC25 antibodies against human LRRC25, and their cross-reactivity with cynomolgus monkey LRRC25, antibody binding curve analyses were performed and EC50 values against plate-immobilized recombinant human and cyno LRRC25 proteins were determined.
as §1

[13] = target: T2, LRRC25(96-115) biotin peptide; experiment: ELISA, 20 nM antibody, biotinylated antigen on streptavidin plate
Description: as §2

[14] = target: T13, biotinylated human LRRC25-His protein (human, UniProt Q8N386 21-165, biotinylated (sites not given)); experiment: as above
T13 construct: also called Biotin LRRC25-His; biotinylated LRRC25 protein
Description: as §2

T11 sequence (chain, as listed by the source limits assumed): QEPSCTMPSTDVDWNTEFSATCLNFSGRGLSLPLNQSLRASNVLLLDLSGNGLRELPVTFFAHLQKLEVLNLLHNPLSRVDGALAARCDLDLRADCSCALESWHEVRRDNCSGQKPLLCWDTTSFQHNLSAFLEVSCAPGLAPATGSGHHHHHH
T12 sequence (Q8N386 other isoform, or with tags, fused parts or gaps): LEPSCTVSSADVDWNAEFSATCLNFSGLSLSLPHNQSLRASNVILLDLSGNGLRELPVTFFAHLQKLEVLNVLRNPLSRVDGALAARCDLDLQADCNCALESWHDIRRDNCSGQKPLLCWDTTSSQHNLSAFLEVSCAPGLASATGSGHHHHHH
T13 sequence (Q8N386 other isoform, or with tags, fused parts or gaps): as above

Binder	binding result [1]	binding result [2]	binding result [3]	binding result [4]	binding result [5]	binding result [6]	binding result [7]	binding result [8]	binding result [9]	binding result [10]	binding result [11]	EC50 [12]	absorbance (A450) [13]	absorbance (A450) [14]
B1	no binding (tested: 500 nM)	no binding (tested: 20 nM)	no binding (tested: 20 nM)	no binding (tested: 20 nM)	no binding (tested: 20 nM)	no binding (tested: 20 nM)	no binding (tested: 20 nM)	no binding (tested: 20 nM)	no binding (tested: 20 nM)	no binding (tested: 20 nM)	no binding (tested: 20 nM)	3.2 nM	0.099 A450	0.324 A450
B2	no binding (tested: 500 nM)	no binding (tested: 20 nM)	no binding (tested: 20 nM)	no binding (tested: 20 nM)	no binding (tested: 20 nM)	no binding (tested: 20 nM)	no binding (tested: 20 nM)	no binding (tested: 20 nM)	no binding (tested: 20 nM)	no binding (tested: 20 nM)	no binding (tested: 20 nM)	45.1 nM	0.11 A450	0.341 A450
B3	no binding (tested: 500 nM)	no binding (tested: 20 nM)	no binding (tested: 20 nM)	no binding (tested: 20 nM)	no binding (tested: 20 nM)	no binding (tested: 20 nM)	no binding (tested: 20 nM)	no binding (tested: 20 nM)	no binding (tested: 20 nM)	no binding (tested: 20 nM)	no binding (tested: 20 nM)	63 nM	0.156 A450	0.324 A450
B4	no binding (tested: 500 nM)	no binding (tested: 20 nM)	no binding (tested: 20 nM)	no binding (tested: 20 nM)	no binding (tested: 20 nM)	no binding (tested: 20 nM)	no binding (tested: 20 nM)	no binding (tested: 20 nM)	no binding (tested: 20 nM)	no binding (tested: 20 nM)	no binding (tested: 20 nM)	30.3 nM	0.079 A450	0.354 A450
B5	no binding (tested: 500 nM)	no binding (tested: 20 nM)	no binding (tested: 20 nM)	no binding (tested: 20 nM)	no binding (tested: 20 nM)	no binding (tested: 20 nM)	no binding (tested: 20 nM)	no binding (tested: 20 nM)	no binding (tested: 20 nM)	no binding (tested: 20 nM)	no binding (tested: 20 nM)	~100 nM	0.11 A450	0.251 A450
